One series has as its target PvdL module 1 (PvdLM1) (Pseudomonas aeruginosa, UniProt Q9I157). Briefly: ATP/[…]-pyrophosphate exchange assay. The format is biochemical.
For series [1], the target named is T1, PvdQ (Pseudomonas aeruginosa, UniProt Q9I194). Briefly: co-crystal structure. It counts as biochemical.
For series [2], the target named is T1, PvdQ. In words: crystal structure, co-purified ligand. The format is binding.
For series [3], the system named is CCCCCCCCCCCC(=O)Oc1ccc([N+](=O)[O-])cc1. In words: purified protein.
For series [4], the system named is CCCCCCCCCCCC(=O)Oc1ccc2c(C)cc(=O)oc2c1. In words: purified protein.
The test system of series [5] is CCCCCCCCCCCCCC(=O)Oc1ccc([N+](=O)[O-])cc1. In words: purified protein. Particulars: myristate bound to Serβ[…].

T1 sequence (Q9I194 24-193): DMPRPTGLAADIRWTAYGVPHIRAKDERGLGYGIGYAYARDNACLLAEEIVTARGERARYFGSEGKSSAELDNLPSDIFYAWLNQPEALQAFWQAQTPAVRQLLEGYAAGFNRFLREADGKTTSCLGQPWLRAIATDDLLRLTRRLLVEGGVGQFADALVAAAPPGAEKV
T1 sequence (Q9I194 217-762): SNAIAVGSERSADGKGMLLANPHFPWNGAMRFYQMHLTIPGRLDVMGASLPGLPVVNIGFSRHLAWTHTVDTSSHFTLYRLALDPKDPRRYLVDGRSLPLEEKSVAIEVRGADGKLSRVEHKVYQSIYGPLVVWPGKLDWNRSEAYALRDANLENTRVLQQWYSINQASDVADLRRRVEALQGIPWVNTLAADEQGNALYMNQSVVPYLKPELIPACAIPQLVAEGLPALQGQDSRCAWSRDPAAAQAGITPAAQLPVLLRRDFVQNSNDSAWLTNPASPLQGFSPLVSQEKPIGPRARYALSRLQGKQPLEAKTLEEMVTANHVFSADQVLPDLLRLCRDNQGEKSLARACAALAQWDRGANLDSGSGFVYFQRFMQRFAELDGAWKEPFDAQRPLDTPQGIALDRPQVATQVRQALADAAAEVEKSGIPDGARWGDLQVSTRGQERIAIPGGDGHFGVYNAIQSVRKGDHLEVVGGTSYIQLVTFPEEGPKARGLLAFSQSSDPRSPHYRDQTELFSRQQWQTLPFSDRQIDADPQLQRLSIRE

Consider `CCCCCCCCCCCCCC(=O)O` [C14, myristate], for which the “CPM (×10^3) ^a” value at PvdL module 1 (PvdLM1) is 160.0 ± 14.1 CPM (×10^3).

`O=c1onc2n1-c1cc(Br)ccc1OC2` [compound 922, 4H-8-Bromo-1,2,4-oxadiazolo[3,4-d]benz[b][1,4]oxazin-1-one]: the IC50 (in general, the concentration that gives 50% inhibition) at PvdQ [1] was determined as 145 µM.

Take `CCCCCCCC(=O)O` [octanoate]: on PvdQ [2], the “crystal structure, co-purified ligand” value is “co-purifying octanoate molecule bound non-covalently in the fatty acid binding pocket”.

On to PvdQ (Pseudomonas aeruginosa PAO1), for which, in series [3], the Km (commonly the concentration of substrate that gives half-maximal velocity) worked out at 11400 µM; the turnover number (kcat) (as a rule, the number of substrate molecules converted per active site and unit of time at saturation) was 1.99 s⁻¹; the specificity constant (kcat/Km) – broadly, the second-order rate constant that governs catalysis at low substrate concentration – is 175 M⁻¹ s⁻¹. For the same compound, in series [4], the Michaelis constant (Km) is 750 µM, the kcat worked out at 1.24 s⁻¹ and the catalytic efficiency (kcat/Km) was found to be 1660 M⁻¹ s⁻¹. Further, in series [5], the Km stood at 1400 µM, the kcat turned out to be 0.74 s⁻¹ and the kcat/Km was determined as 521 M⁻¹ s⁻¹.

These data come from article PMC3220798 (2011).
